Drawing on PMC11979002, this text covers Kd for two substances.

The experiment deals with HLA-DQ2.2 (DQA1*02:01/DQB1*02:02) with the covalently linked glutL1 peptide. Nature of the experiment: SPR; Biacore T200; biotinylated HLA-DQ2 molecules immobilised on a streptavidin chip (about 3000 RU), biotinylated HLA-DQ8glia-α1 in the reference cell; serial dilutions of TCR flowed at 10 μl/min in 20 mM HEPES pH 7.5, 150 mM NaCl, 1 mM EDTA, 0.005% TWEEN 20; steady-state KD, 1:1 (single ligand) binding model.

pKd: −log10 of the molar value.

G9 TCR, β-chain R75A showed a negative-log Kd (pKd) of 4.99.

The substance G9 TCR, β-chain S58A had a pKd of 5.11.
